Legend:
[1] = system: platelet-rich-plasma (PRP); test: Ristocetin-induced aggregation of platelet-rich plasma (scFv); format: cell-based, human; conditions: scFv 25 μg/ml, 100% = ristocetin treatment
Description: The effect of Y1 (scFv) on aggregation of platelet-rich-plasma (PRP) was tested at various concentrations of Y1. PRP was pre-incubated with Y1 scFv, Y17 scFv, or a control sTM-1cFv for 4 min at 37° C. before being exposed to ristocetin, an inducer of platelet agglutination and aggregation. A reversible inhibitory effect was observed when scFv was added to PRP prior to the addition of ristocetin, and it was dose dependent.
Blood was collected into a tube containing 3.8% sodium citrate. Platelet-rich plasma was prepared by centrifugation at 250×g for 10 minutes.
For platelet aggregation studies, platelet rich plasma (PRP) and washed platelets were stirred at 500 rpm at 37° C. in whole blood Lumiaggregometer (Chronolog, Havertown, Pa.). The difference in light transmission through the platelet suspension and suspending medium was taken as 100% aggregation. The effect of Y1 on platelet aggregation was evaluated by addition of different concentration of Y1 before the addition of agonist, and the effect was recorded for four minutes.

[2] = system: RP-HPLC KG-1 membrane fraction; test: Western blot with Y1 on SDS-PAGE reducing gels, KG-1 membrane fraction after enzyme treatment; format: binding, human; conditions: O-Sialo glycoprotein endopeptidase, 30′ at 37° C.
Source text: Y1 ligand was further characterized using enzymatic treatments with proteases, glycanases, and […]; Western blotting with Y1, anti-CD42 antibodies, anti-CD162 antibodies and 181, immunoprecipitation using Y1 and anti-CD162 antibodies; FACS analysis using Y1 anti-CD162 antibodies; and sequencing.
The table below summarizes the biochemical experiments preformed to characterize and localize the Y1 binding site on KG-1 cells.
The nitrocellulose membrane was blocked using 5% skim milk for one hour at room temperature. The membrane was then washed 3 times for 5 minutes each with 0.05% Tween 20 in PBS at room temperature. The membrane was incubated with 5 μg/ml Y1-biotin (or 181-biotin) in 2% skim milk in PBS for one hour at room temperature. The membrane was then washed 3 times for 5 minutes each with cold 0.05% Tween 20 in PBS in the cold room (about 4 to about 10° C.). The membrane was then incubated in the cold room with a 1:1000 dilution of SAV-HRP (streptavidin-HRP) (at a final concentration of […]) in 2% skim milk, 0.05% Tween. The dilution was carried out at room temperature (about 25° C.), then the diluted SAV-HRP was cooled on ice for 10-15 minutes before use. The incubation was carried out for 1 hour with gentle shaking. After the incubation with SAV-HRP, the membrane was washed, as above. […]

Leukemia Cells = test: FACS of leukemia samples: anti-CD162 versus Y1; format: binding, human; conditions: 12 patient samples
Description: Analysis of binding of scFv Y1 antibodies and anti-CD162 antibodies to diseased cells also illustrates that scFv Y1 has binding characteristics different from those of anti-CD162 antibodies. […] (Table F). Y1 binds to the leukemic cells in 10 of 12 samples. In contrast, anti-CD162 bound only 5 out of 12 samples. […] Thus, it may be concluded that, in leukemic cells, scFv Y1 binds to a ligand other than that recognized by anti-CD162.
Samples provided from hospitals. Patients sample 30 μl/tube. Add 5 μl /tube of CD33-APC (for AML) or CD19-APC (for B-CLL) or CD38-APC (for Multiple Myeloma). Add 5 μl/tube of CD45-PerCp and 5 μl of scFv-Y1 or control scFv-N31 or CD162-PE (KPL1). Incubate tubes 30 minutes at 4° C. with low shaking. Wash by adding 2 ml PBS and spin 5 minutes at 1200 rpm. Discard supernatant.
For a one step assay continue with the lysis step:
Add 500 μl BD Lysine solution diluted 1:10 with ddH2O (300 μl to patient sample). Vortex at high speed and incubate 12 minutes at 4° C. Wash as above. Discard supernatant. And add 500 μl PBS. The samples are read in the FACS using blood sample acquisition setup according to international standards.
For two or more assays: working buffer is PBS+1% BSA+0.05% sodium azide. Incubations and wash as above.
Lysis of the red blood cells is the final step in the assay, followed by resuspension with 500 μl PBS.

KG-1 cells = test: Binding competition experiments on KG-1 cells (monomer, dimer, Y1 IgG); design: species or system human
Source text: To compare the binding of the scFv monomer (also referred to as CONY1) with the Y1 dimer, binding competition experiments were done in vitro on KG-1 cells. In addition, these experiments also compared the binding of the full Y1 IgG to the scFv Y1 monomers. To perform this study, a Y1 IgG was labeled with biotin.

Jurkat cells = test: FACS binding to Jurkat cells (IgG-Y1, scFv-Y1, diabodies, triabodies); design: species or system human; conditions: 1 μg scFv-Y1 versus 5 ng IgG-Y1, two-step staining
Description: Binding experiments were performed to determine the level of binding of the IgG-Y1 molecule compared to the binding level of the scFv-Y1 molecule. A two-step staining procedure was employed, wherein 5 ng of IgG-Y1 were reacted with both RAJI cells (negative control, FIG. 44) and Jurkat cells (Y1 positive cells, FIG. 44). For detection, PE-labeled goat anti-human IgG was used. Similarly, 1 μg of scFv-Y1 was reacted with Jurkat cells (FIG. 44), and PE-labeled rabbit anti-scFv was used for detection.
FACS analysis was performed on Jurkat cells using a “three step staining procedure.” First, crude extracts or purified unlabeled scFv are stained, then mouse anti-myc antibodies, and finally, FITC- or PE-conjugated anti-mouse antibodies. FACS analysis requires 5-8×10^5 cells, which have been Ficoll-purified and resuspended in PBS+1% BSA. Binding was carried out for 1 hour at 4° C. After each step, cells were washed and resuspended in PBS+1% BSA. After the final staining step, cells were fixed by re-suspending in PBS, 1% BSA, 2% formaldehyde, and then read by FACS (Becton-Dickinson).
The binding of Y1-scFv was compared to that of diabodies and triabodies.

B1: Y1 scFv: fully human scFv clone binding platelets and AML cells; SEQ ID NO:25, heavy chain CDR3 SEQ ID NO:8 (protein, listed as Homo sapiens)
scFv: MKYLLPTAAAGLLLLAAQPAMAEVQLVESGGGVVRPGGSLRLSCAASGFTFDDYGMSWVRQAPGKGLEWVSGINWNGGSTGYADSVKGRFTISRDNAKNSLYLQMNSLRAEDTAVYYCARMRAPVIWGQGTLVTVSRGGGGSGGGGSGGGGSSELTQDPAVSVALGQTVRITCQGDSLRSYYASWYQQKPGQAPVLVIYGKNNRPSGIPDRFSGSSSGNTASLTITGAQAEDEADYYCNSRDSSGNHVVFGGGTKLTVLGAAAEQKLISEEDLNGAA
For B1, the “% aggregation” value [1] was 87%, the “Reactivity with Y1” value [2] was “Reactivity” and the “samples in which the antibody binds the leukemic cells” value (Leukemia Cells) was 10 of 12. The “amount bound to KG-1 cells to the same extent” value (KG-1 cells; FITC-labeled, without serum) was 1 µg, the “competition with Y1 IgG-Biotin for binding to KG-1 cells” value (KG-1 cells; Y1 IgG-Biotin 50 ng, Y1 scFvs 5 μg and 10 μg) was “partially competed” and the “more molecules needed for a level of detection similar to IgG-Y1” value (Jurkat cells) was “approximately 10^3 fold”.

From patent US20040001839A1, “Multimers - isolated molecules comprising epitopes containing sulfated moieties, antibodies to such epitopes, and uses thereof” (priority 2000, published 2004)
